# Test results reported in US20050069530A1.
# Target: human type IIA sPLA2 (human) (UniProt P14555)
# Test: cell-based or functional assay
# human type IIA sPLA2 (human), sequence (P14555 21-144): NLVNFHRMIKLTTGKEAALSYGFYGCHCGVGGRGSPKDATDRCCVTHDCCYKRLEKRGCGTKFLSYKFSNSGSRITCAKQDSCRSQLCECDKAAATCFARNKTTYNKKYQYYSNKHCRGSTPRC
Substance,IC50 of sPLA2 enzyme inhibition (3H-labelled E. coli membranes as substrate) [µM],Mean % Inhibition at fixed peptide concentration [5 µM] [%]
"D60, 65E-PIP (59-67) (peptide)",4.2,
PIP (56-67) (peptide),,34.2
PIP (57-67) (peptide),,14.2
PIP (58-67) (peptide),3.67,59.5
PIP (59-67) (peptide),3.8,56.4
PIP (60-67) (peptide),5.75,
